Read-outs that look alike come from different tables or passages of the source. Blank lines part the entries; values can stand above or below the binder they belong to.
How the values were obtained:
Assay in all cases: resonant mirror detection
[1] = molecular target: full length recombinant human protein 4.1G (human, UniProt O43491 1-1005)
[2] = molecular target: recombinant 4.1R^135 (135kDa isoform of protein 4.1R) (human, UniProt P11171 1-864)
complex of 4.1G and CaM [3] = molecular target: T1, complex of 4.1G and CaM (human | , UniProt O43491 1-1005; P0DP23 1-149)
complex of 4.1G and CaM [4] = molecular target: T1, complex of 4.1G and CaM; remark: listed apart in the source

Chain of full length recombinant human protein 4.1G (O43491 whole entry, canonical isoform): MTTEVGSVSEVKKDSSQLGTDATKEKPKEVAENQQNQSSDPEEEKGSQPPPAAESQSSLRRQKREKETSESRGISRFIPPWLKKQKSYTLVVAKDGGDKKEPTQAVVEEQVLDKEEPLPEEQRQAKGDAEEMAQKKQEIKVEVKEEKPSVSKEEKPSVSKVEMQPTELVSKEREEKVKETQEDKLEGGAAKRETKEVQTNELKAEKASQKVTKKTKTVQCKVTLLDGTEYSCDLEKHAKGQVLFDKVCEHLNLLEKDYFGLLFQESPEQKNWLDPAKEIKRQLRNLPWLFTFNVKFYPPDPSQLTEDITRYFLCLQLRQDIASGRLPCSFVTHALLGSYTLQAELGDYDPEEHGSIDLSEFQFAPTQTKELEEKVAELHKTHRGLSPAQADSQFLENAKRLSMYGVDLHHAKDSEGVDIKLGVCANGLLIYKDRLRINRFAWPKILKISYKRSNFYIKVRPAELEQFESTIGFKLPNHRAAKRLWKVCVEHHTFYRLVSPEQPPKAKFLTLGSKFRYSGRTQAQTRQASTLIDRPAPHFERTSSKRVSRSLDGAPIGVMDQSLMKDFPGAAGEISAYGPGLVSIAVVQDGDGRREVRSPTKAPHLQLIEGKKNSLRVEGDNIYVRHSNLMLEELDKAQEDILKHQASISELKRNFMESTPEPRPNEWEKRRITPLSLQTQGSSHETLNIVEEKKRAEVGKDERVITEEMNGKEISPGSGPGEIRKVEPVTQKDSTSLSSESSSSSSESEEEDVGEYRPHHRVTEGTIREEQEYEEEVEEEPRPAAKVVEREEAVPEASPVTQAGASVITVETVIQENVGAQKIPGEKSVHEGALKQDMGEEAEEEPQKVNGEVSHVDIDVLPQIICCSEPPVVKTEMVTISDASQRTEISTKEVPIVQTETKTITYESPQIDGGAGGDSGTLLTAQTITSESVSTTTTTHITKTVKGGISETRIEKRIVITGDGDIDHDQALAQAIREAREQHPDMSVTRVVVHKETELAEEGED
Chain of recombinant 4.1R^135 (135kDa isoform of protein 4.1R) (P11171 whole entry, canonical isoform): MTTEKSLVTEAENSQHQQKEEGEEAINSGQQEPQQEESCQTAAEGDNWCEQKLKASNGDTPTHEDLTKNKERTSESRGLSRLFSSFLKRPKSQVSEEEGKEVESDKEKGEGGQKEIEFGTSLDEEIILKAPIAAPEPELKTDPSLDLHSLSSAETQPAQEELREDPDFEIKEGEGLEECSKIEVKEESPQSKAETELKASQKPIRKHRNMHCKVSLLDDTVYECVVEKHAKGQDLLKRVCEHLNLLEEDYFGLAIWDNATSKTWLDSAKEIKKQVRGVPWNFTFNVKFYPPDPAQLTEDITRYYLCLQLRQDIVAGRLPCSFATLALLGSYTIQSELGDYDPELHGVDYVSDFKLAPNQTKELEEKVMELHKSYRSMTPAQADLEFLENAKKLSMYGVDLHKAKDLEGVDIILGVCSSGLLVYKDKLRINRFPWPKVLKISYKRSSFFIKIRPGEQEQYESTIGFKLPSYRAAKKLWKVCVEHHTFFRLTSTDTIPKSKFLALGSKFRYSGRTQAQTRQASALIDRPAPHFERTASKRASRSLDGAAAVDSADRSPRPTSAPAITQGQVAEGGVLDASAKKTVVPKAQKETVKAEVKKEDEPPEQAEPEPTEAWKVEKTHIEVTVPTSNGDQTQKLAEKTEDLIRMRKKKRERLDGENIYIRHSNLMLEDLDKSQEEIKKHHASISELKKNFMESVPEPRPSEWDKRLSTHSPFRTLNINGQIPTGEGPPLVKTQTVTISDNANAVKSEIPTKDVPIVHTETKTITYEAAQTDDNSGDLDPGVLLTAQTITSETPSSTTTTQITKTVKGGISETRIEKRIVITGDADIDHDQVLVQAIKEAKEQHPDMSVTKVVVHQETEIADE

Kd [1]: 178 nM
koff [1]: 0.0066 s⁻¹
kon [1]: 38000 M⁻¹ s⁻¹
Kd [2]: 329 nM
koff [2]: 0.015 s⁻¹
kon [2]: 42000 M⁻¹ s⁻¹
Kd (complex of 4.1G and CaM [3]): 197 nM
koff (complex of 4.1G and CaM [3]): 0.014 s⁻¹
kon (complex of 4.1G and CaM [3]): 71000 M⁻¹ s⁻¹
B1: cytoplasmic domain of CD44 (domain or fragment, UniProt P16070 671-742, looked up)
chain: NSRRRCGQKKKLVINSGNGAVEDRKPSGLNGEASKSQEMVHLVNKESSETPDQFMTADETRNLQNVDMKIGV

Kd (complex of 4.1G and CaM [4]): 1250 nM
koff (complex of 4.1G and CaM [4]): 0.015 s⁻¹
kon (complex of 4.1G and CaM [4]): 12000 M⁻¹ s⁻¹
Kd (complex of 4.1G and CaM [3]): 155 nM
koff (complex of 4.1G and CaM [3]): 0.013 s⁻¹
kon (complex of 4.1G and CaM [3]): 84000 M⁻¹ s⁻¹
B2: cytoplasmic domain of glycophorin C (domain or fragment, UniProt P04921 82-128, looked up)
chain: RYMYRHKGTYHTNEAKGTEFAESADAALQGDPALQDAGDSSRKEYFI

Kd [1]: 185 nM
koff [1]: 0.014 s⁻¹
kon [1]: 80000 M⁻¹ s⁻¹
Kd [2]: 23 nM
koff [2]: 0.0071 s⁻¹
kon [2]: 310000 M⁻¹ s⁻¹
Kd (complex of 4.1G and CaM [3]): 127 nM
koff (complex of 4.1G and CaM [3]): 0.064 s⁻¹
kon (complex of 4.1G and CaM [3]): 510000 M⁻¹ s⁻¹
B3: cytoplasmic domain of band 3 (domain or fragment, UniProt P02730 1-403, looked up)
chain: MEELQDDYEDMMEENLEQEEYEDPDIPESQMEEPAAHDTEATATDYHTTSHPGTHKVYVELQELVMDEKNQELRWMEAARWVQLEENLGENGAWGRPHLSHLTFWSLLELRRVFTKGTVLLDLQETSLAGVANQLLDRFIFEDQIRPQDREELLRALLLKHSHAGELEALGGVKPAVLTRSGDPSQPLLPQHSSLETQLFCEQGDGGTEGHSPSGILEKIPPDSEATLVLVGRADFLEQPVLGFVRLQEAAELEAVELPVPIRFLFVLLGPEAPHIDYTQLGRAAATLMSERVFRIDAYMAQSRGELLHSLEGFLDCSLVLPPTDAPSEQALLSLVPVQRELLRRRYQSSPAKPDSSFYKGLDLNGGPDDPLQQTGQLFGGLVRDIRRRYPYYLSDITDAFSP

Kd [1]: 181 nM
koff [1]: 0.0085 s⁻¹
kon [1]: 47000 M⁻¹ s⁻¹
Kd [2]: 248 nM
koff [2]: 0.0047 s⁻¹
kon [2]: 19000 M⁻¹ s⁻¹
B4: p55 (natural protein, UniProt Q00013 1-466, looked up)
chain: MTLKASEGESGGSMHTALSDLYLEHLLQKRSRPEAVSHPLNTVTEDMYTNGSPAPGSPAQVKGQEVRKVRLIQFEKVTEEPMGITLKLNEKQSCTVARILHGGMIHRQGSLHVGDEILEINGTNVTNHSVDQLQKAMKETKGMISLKVIPNQQSRLPALQMFMRAQFDYDPKKDNLIPCKEAGLKFATGDIIQIINKDDSNWWQGRVEGSSKESAGLIPSPELQEWRVASMAQSAPSEAPSCSPFGKKKKYKDKYLAKHSSIFDQLDVVSYEEVVRLPAFKRKTLVLIGASGVGRSHIKNALLSQNPEKFVYPVPYTTRPPRKSEEDGKEYHFISTEEMTRNISANEFLEFGSYQGNMFGTKFETVHQIHKQNKIAILDIEPQTLKIVRTAELSPFIVFIAPTDQGTQTEALQQLQKDSEAIRSQYAHYFDLSLVNNGVDETLKKLQEAFDQACSSPQWVPVSWVY
